Test system: MS2 coat protein
Assay: apparent KD of MS2 coat protein; designed switch direction (-1 OFF switch, 1 ON switch): 1; higher = weaker reporter binding
How it was run: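 Designed RNA switches sharing common flanks were transcribed on Illumina chips by stalled E. coli RNA polymerase. They were titrated with SNAP-549-labelled MS2 coat protein, from 0.7 or 1.5 nM doubling to 3 µM, in Tris-HCl pH 7.5 buffer with KCl, MgCl2, BSA, DTT, tRNA and Tween-20. Titrations ran without input, with 200 uM small-molecule ligand, or with an oligonucleotide input. The apparent KD of each design is the median over its clusters, after curve-fitting of normalised cluster fluorescence.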

[1] = input ligand: microRNA oligo, concentration not stated
[2] = Eterna round: R95, input ligand: FMN 200 uM
[3] = Eterna round: R95, input ligand: microRNA oligo, concentration not stated
[4] = Eterna round: R95, input ligand: none

| Sequence | apparent KD of MS2 coat protein (input ligand: FMN 200 uM) [nM] | apparent KD of MS2 coat protein [1] [nM] | apparent KD of MS2 coat protein (input ligand: none) [nM] | apparent KD of MS2 coat protein [2] [nM] | apparent KD of MS2 coat protein [3] [nM] | apparent KD of MS2 coat protein [4] [nM] |
| --- | --- | --- | --- | --- | --- | --- |
| AAAGGAUGAUGUUACAUGAGGAUCACCCAUGUUGUGAUAACUAAGGAUAUGUGUUUAACCAGUUAAUAGAAGGUAGGAUCAUAA [AK SSNG3-V2-4] (Eterna round: R96, puzzle: Same State NG 3) | 168 | 97.4 | 124 |  |  |  |
| AACAAUCUAUCUGAGGAUAUCAUGAAAUAAACAUGAGGAUCACCCAUGUGCAGGAUAACUGCAUAUGAGAAGGCAGAUAGAUUGA [salish99_ss2_r3_041] (puzzle: Same State 2) |  |  |  | 57.3 | 661 | 656 |
| AACACACAUGAGGAUCACCCAUGUACCGAAAUCACAGGAUAUACAUAACUGAAUAACAUUGUAGAAGGGUGGCCGG [Enorerteso] (puzzle: Same State 1) |  |  |  | 23.7 | 65.7 | 91.4 |
| AACAGUCGGCGAGGAUAUGGACGGACAGGCUUGCCUGUGCGGCUCACAUGAGGAUCACCCAUGUUCUAGAAGGCGCCACUGAGA [Atteve] (Eterna round: R96, puzzle: Same State NG 2) | 21.3 | 50 | 81.7 |  |  |  |
| AACAGUCGGCGAGGAUAUGGACGUACGGACUAACCCAUACGGCUCACAUGAGGAUCACCCAUGUUCUAGAAGGCGCCACUGAAA [Soisce] (Eterna round: R96, puzzle: Same State NG 2) | 18.1 | 22.8 | 66.7 |  |  |  |
| AACUAUCUAUCUCAGGAUAUCAUGUCAAAGACAUGAGGAUCACCCAUGUACCAGGAAACUGGUUAUGAGAAGGGAGAUAGAUAGA [Mat - Same State 2 - Mod - D38] (puzzle: Same State 2) |  |  |  | 92.5 | 87.7 | 97 |
| AAGAAACAUGAGGAUCACCCAUGUCGAGAGAGACGAGGAUAUCUGAAUCGAUUAGAUUACGGAGAAGGCGUGAAAA [Same State 1.2 (Same State of Confusion2 - minimal change )] (Eterna round: R96, puzzle: Same State 1) | 22.1 | 22 | 27 |  |  |  |
| AAGAAACAUGAGGAUCACCCAUGUGAUAAUAUGGGAGGAUAUACAAAGACGAAAGUCGAAGUAGAAGGCCUAUGAA [Garnet 43] (Eterna round: R96, puzzle: Same State 1) | 46.4 | 50.9 | 68.7 |  |  |  |
| AAGUAACAUGAGGAUCACCCAUGUGAGGUGAGCGUAGGAUAUCGAGAAGGAAGGGUGGAGCGAGAAGGACGAGAGG [JR_SS1_Sub0100] (puzzle: Same State 1) |  |  |  | 191 | 401 | 270 |
| AAGUUAAGCUUUUUGUUCUGCCUAUUCCAACAUGAGGAUCACCCAUGUAGUCUGACGAUUGUGUGUGUAGUUGAGAU [JR_SHM208A_Sub028] (puzzle: Sensor for hsa-mir-208a) |  |  |  | 51.8 | 63.5 | 57.9 |
| AAGUUACUAUCUCAGGAUAUCAUGUCAAAGACAUGAGGAUCACCCAUGUACCAGGAAACUGGUUAUGAGAAGGGAGAUAGUAACU [Mat - Same State 2 - Mod - D54] (puzzle: Same State 2) |  |  |  | 156 | 204 | 819 |
| AAUCGUUUAAUAGGAUAUCGCUAUACAUGAGGAUCACCCAUGUUUACCACGCUGGUUUUUCGUACCGAGAAGGAUUCUGAUGAU [JL JR sub007 mod 8] (Eterna round: R96, puzzle: Same State NG 2) | 36.6 | 26.5 | 39.9 |  |  |  |
| AAUCGUUUGAUAGGAUAUCGCUAUACAUGAGGAUCACCCAUGUUUACCACACUGGUUUUUCGUACCGAGAAGGAUUCUGAUGAU [JL JR sub007 mod 9] (Eterna round: R96, puzzle: Same State NG 2) | 40.2 | 33.1 | 43.5 |  |  |  |
| AAUUAAGAUCAAGGAUAUCACGUCGAAUAGACGUGAGAAGGUGAUAAUUACAUGAGGAUCACCCAUGUAUAACAUGAAUUAAUU [SSNG1/9-B1] (Eterna round: R96, puzzle: Same State NG 1) | 30 | 24.8 | 38 |  |  |  |
| AAUUAAUUAAUACAUGAGGAUCACCCAUGUAAUUAUUAGAUCAAGGAUAUCAGCUCGUUUAGAGCUGAGAAGGUGAUCACAUGU [SSNG3/18-A3] (Eterna round: R96, puzzle: Same State NG 3) |  | 211 |  |  |  |  |
| AAUUCACGAGCACAGGAUAUGCUUGCCAACACAUGAGGAUCACCCAUGUCGGGCUACGAAUAAGAGCAGAAGGGUGACUCAUGAU [Atesusgela] (puzzle: Same State 2) |  |  |  | 16.8 | 19.2 | 13.9 |
| AAUUGUUUCUGAGGAUAUCAGUAGUAUGCCAAUUGAGAAGGCAGUACAUGAGGAUCACCCAUGUUGUGGUUUGAUAGAAUGAUA [JR_SSNG1_Sub002] (Eterna round: R96, puzzle: Same State NG 1) | 170 | 143 | 181 |  |  |  |
| ACAAGCUUUUUGCUCCUCUUAUGUCCGAAACAUGAGGAUCACCCAUGUAUAGAUUGUGUGUUGUUGUAGAUGCAAGA [JR_SHM208A_Sub061] (Eterna round: R96, puzzle: Sensor for hsa-mir-208a) | 73.8 | 63.4 | 74.1 |  |  |  |
| ACAAGCUUUUUGCUCCUCUUAUGUCCGAAACAUGAGGAUCACCCAUGUAUAGAUUGUGUGUUGUUGUAGAUGCAAGA [JR_SHM208A_Sub061] (puzzle: Sensor for hsa-mir-208a) |  |  |  | 69.3 | 72 | 71.8 |
| ACAUAGGUUUCAGGAUAUGGGUAAAUUCCCAACAUGAGGAUCACCCAUGUCCGUAGGGAUAACAUCCAGAAGGGAAGCCACAUA [MOD Eternabot Solution 1 (Score 87.5)] (Eterna round: R96, puzzle: Same State NG 2) | 89.3 | 100 | 59.4 |  |  |  |
| ACAUGAAAUUUAGGAUAUUUUGUACCUACAUGUGACAUGAGGAUCACCCAUGUGGUAAGUAUGAGAAAGAAGGAAAAGAUAUGU [Equivalence 9 - Jieux - Same State NG 2] (Eterna round: R96, puzzle: Same State NG 2) | 71.8 | 61.6 | 70.9 |  |  |  |
| ACAUGAGACUUAGGAUAUCUUGUACCUACAUGUGACAUGAGGAUCACCCAUGUGGUAAGUAUGAGAGAGAAGGAAGAGAUAUGU [Equivalence 37 - Jieux - Same State NG 2] (Eterna round: R96, puzzle: Same State NG 2) | 19.7 | 14.4 | 23.2 |  |  |  |
| ACAUGAGACUUAGGAUAUGUUGUACCUACAUGUGACAUGAGGAUCACCCAUGUGGUAAGUAUGAGGCAGAAGGGAGAGAUAUGU [Equivalence 47 - Jieux - Same State NG 2] (Eterna round: R96, puzzle: Same State NG 2) | 54.3 | 85.6 | 77.7 |  |  |  |
| ACAUGAGGAGCAGGAUAUCGCAUGAGGAUCACCCGAGAAGGGCUCACACAUGAGGAUCACCCAUGUAUCACCCAUGUAUGUUGA [twils 1] (Eterna round: R96, puzzle: Same State NG 1) | 484 | 105 | 498 |  |  |  |
| ACGCAGCUGGGUGAGGAUAUUGGUGGUACAACAUGAGGAUCACCCAUGUCCGAAGCUCGGACCCUCGAGAAGGCGCCCGGCUGCG [Soinraesar Omei Mod 5] (puzzle: Same State 2) |  |  |  | 122 | 17.2 | 62 |
| ACGCUAAAUGGAGGAUAUGGAGCCUUAUUGGCUCCAGAAGGUCAAAACAUGAGGAUCACCCAUGUGCGGUGGUCUAAUGACCAC [Eli NG1ss - 47] (Eterna round: R96, puzzle: Same State NG 1) | 68 | 99.2 | 169 |  |  |  |
| AGAAAACAUGAGGAUCACCCAUGUAUAGUGAAUACAGGAUAUCACCGGCGGAAUAGCCAGUGAGAAGGGUGAUCGC [Aarusxe] (puzzle: Same State 1) |  |  |  | 71.5 | 11.5 | 41 |

Reference: the supplement of paper PMC9170038
